What was measured:
[1] = molecular target: T1, 2PT-NBD1 (Homo sapiens, UniProt P13569, A534P/I539T/S492P/V470M); assay: NBD1 ELISA dose-response, nanobody binding to immobilized 2PT-NBD1; details: immobilized biotinylated 2PT-NBD1
T1 construct: 2PT-NBD1 mutants (residues 387-646 containing the mutations S492P, A534P, I539T); His6-SUMO (N, cleaved yes); made in house; host or cells: Escherichia coli BL21(DE3) pLysS
Method: For dose-response assays, Nunc MaxiSorp 96-well plates (ThermoScientific), were coated with 5 μg/ml NeutrAvidin Biotin-Binding protein (ThermoScientific) overnight at 4° C. and blocked 2 h at room temperature (RT) with 2% milk in phosphate-buffered saline (PBS). Each new reagent addition was preceded by three washes with 200 μl of NBD1 buffer (20 mM HEPES pH 7.5, 150 mM NaCl, and 10% (w/v) glycerol, 10% (w/v) ethylene glycol, 2 mM ATP, 3 mM MgCl2). Then, biotinylated purified NBD1 proteins at 5 μg/ml were immobilized 30 min at RT followed by 1 h RT incubation with 100 μl various concentrations (0-20 μg/ml) of purified nanobodies. […] 50 μl of 1-Step UltraTMB-ELISA (ThermoScientific) was used as a substrate for the peroxidase and intensity of the reaction was proportional to absorbance measured at 450 nm with SynergyMx (BioTek) after addition of 50 μl H2SO4 at 1M.
Affinity constants (KD) and thermodynamic parameters from ITC experiments were determined using one-site binding model with MicroCal Origin 7.0 software (Origin Lab Corp.). […] DSC data were analyzed with the MicroCal Origin 7.0 software (Origin Lab Corp.), from which the unfolding temperature (Tm) was obtained.

[2] = molecular target: T2, purified human CFTR (wt-CFTR) (Homo sapiens, UniProt P13569); assay: Full-length CFTR ELISA; format: binding; details: for Bmax: immobilized CFTR, nanobodies titrated; for binding of purified FL-CFTR: nanobodies immobilized, purified FL-CFTR titrated
T2 construct: His10-SUMO* (N); FLAG; EGFP (C); made in house; host or cells: HEK 293 cell line D165
T2 sequence (P13569 whole entry): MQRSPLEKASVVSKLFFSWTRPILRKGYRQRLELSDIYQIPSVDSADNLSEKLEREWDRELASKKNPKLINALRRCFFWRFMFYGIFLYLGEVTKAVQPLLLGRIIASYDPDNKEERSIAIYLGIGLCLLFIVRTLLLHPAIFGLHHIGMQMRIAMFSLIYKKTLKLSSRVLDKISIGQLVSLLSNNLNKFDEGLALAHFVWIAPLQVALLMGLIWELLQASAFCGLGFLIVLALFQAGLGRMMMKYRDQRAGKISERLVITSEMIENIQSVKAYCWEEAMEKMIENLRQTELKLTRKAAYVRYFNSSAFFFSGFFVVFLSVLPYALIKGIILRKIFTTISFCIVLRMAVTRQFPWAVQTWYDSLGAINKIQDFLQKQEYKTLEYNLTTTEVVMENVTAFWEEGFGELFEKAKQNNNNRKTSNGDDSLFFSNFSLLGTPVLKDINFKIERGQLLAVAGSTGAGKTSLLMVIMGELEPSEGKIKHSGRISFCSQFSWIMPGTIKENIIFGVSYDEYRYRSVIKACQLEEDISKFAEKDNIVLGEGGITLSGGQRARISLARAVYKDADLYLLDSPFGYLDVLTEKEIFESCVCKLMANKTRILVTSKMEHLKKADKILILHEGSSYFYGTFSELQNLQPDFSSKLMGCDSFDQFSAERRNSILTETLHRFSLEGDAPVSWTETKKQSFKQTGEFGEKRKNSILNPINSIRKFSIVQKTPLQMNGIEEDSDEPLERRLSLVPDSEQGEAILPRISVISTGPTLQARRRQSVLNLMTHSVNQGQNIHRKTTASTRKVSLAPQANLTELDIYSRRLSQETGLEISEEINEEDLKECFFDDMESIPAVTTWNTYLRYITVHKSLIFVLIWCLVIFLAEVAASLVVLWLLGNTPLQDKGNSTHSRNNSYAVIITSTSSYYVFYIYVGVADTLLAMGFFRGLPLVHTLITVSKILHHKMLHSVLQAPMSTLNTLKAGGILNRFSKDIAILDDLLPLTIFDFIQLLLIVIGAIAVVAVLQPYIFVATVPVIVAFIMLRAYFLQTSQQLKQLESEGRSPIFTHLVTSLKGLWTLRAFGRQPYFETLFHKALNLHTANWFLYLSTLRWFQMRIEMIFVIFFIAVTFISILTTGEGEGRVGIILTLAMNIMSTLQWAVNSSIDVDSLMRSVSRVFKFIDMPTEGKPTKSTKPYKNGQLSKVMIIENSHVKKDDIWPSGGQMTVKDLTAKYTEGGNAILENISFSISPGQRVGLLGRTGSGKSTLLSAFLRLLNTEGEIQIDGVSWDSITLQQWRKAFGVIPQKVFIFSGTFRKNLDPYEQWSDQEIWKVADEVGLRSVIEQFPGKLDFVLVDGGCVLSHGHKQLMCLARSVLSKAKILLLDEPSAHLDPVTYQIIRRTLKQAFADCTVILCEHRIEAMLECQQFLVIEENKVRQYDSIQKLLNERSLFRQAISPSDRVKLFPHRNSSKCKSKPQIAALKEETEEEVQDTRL
Method: Strep-Tactin XT coated microplate (iba Life Science) was coated overnight at 4° C. with Twin-Strep-tagged nanobodies (5 μg/ml). Plate was blocked with 4% milk for 2 h at RT. Then different concentrations of CFTR (10^−10 to 10^−8 M) were incubated for 2 h at 4° C. CFTR binding was detected with monoclonal antibodies L12B4, MM13, 154, 660, 570, 596 specific to CFTR obtained from the CFTR Antibody Distribution Program (http://cftrantibodies.web.unc.edu/available-antibodies)46 and then anti-mouse-HRP antibody (Millipore, catalogue number: AP308P, 0.5 μg/ml) for 1 h 30 min at 4° C. For Bmax determination Pierce Nickel Coated Plate (ThermoScientific) was coated 1 h at 4° C. with CFTR (8 μg/ml). Plate was blocked with 4% milk for 2 h at 4° C. Then different concentrations of nanobodies (10^−9 to 10^−6 M) were incubated for 2 h at 4° C. Nanobody binding was detected with Myc-tag specific antibody (Sigma, catalogue number: C3956, 0.5 μg/ml) and then anti-rabbit-HRP antibody (Cell Signaling, catalogue number: 7074S, 1:1000 dilution) for 1 h 30 min at 4° C. Between each step wells were washed 3 times by aspiration with 50 mM HEPES pH 7.5, 150 mM NaCl, 10% glycerol, 2 mM ATP, 2.5 mM MgCl2, 0.01% DMNG (Anatrace). Incubations were performed in the same buffer with 0.4% milk. Reaction was visualized by using 1-Step Ultra TMB-ELISA (ThermoScientific) and stopped with H2SO4 (500 mM final). Absorbance was measured at 450 nm using SynergyMx (BioTek).
Affinity constants (KD) and thermodynamic parameters from ITC experiments were determined using one-site binding model with MicroCal Origin 7.0 software (Origin Lab Corp.). Dose response ELISA curves of each Nb binding to either isolated NBD1 or purified FL-CFTR were fitted using the sigmoidal dose-response equation from GraphPad Prism 3. DSC data were analyzed with the MicroCal Origin 7.0 software (Origin Lab Corp.), from which the unfolding temperature (Tm) was obtained.

[3] = molecular target: wt-CFTR (Homo sapiens, UniProt P13569); assay: Thermal inactivation of CFTR (residual ATPase activity after heat challenge); format: biochemical; set-up: His10-SUMO* (N); FLAG; EGFP (C); made in house; host or cells: HEK 293 cell line D165; details: residual ATPase activity after 30 min heat challenge
Chain of wt-CFTR (P13569 whole entry): as above
Method: To determine effect of nanobodies on functional stability, aliquots of purified wt-CFTR (25 nM) were preincubated 1 h on ice with 1 μM nanobody (or 15 μM, in the case of G3a). Substrate α-[32P]-ATP (2 μl) was then added for measurement of ATPase activity as previously described^[48]. Then, nanobody protection against thermal denaturation was determined after a 30 min thermal challenge of the protein complexes followed by an assay of residual ATPase.

[4] = molecular target: T3, stab-CFTR: 2PT/ΔRI/R1048A_1172X (Homo sapiens, UniProt P13569, A534P/DEL405-436/I539T/R1048A/S492P); assay: NanoDSF thermostability of stab-CFTR; format: binding; details: versus stab-CFTR alone
T3 construct: made in house; host or cells: BHK-21 cells (ATCC CCL-10), pNUT vector
T3 sequence (P13569 with tags, fused parts or gaps DEL405-436/S492P/A534P/I539T/R1048A limits assumed): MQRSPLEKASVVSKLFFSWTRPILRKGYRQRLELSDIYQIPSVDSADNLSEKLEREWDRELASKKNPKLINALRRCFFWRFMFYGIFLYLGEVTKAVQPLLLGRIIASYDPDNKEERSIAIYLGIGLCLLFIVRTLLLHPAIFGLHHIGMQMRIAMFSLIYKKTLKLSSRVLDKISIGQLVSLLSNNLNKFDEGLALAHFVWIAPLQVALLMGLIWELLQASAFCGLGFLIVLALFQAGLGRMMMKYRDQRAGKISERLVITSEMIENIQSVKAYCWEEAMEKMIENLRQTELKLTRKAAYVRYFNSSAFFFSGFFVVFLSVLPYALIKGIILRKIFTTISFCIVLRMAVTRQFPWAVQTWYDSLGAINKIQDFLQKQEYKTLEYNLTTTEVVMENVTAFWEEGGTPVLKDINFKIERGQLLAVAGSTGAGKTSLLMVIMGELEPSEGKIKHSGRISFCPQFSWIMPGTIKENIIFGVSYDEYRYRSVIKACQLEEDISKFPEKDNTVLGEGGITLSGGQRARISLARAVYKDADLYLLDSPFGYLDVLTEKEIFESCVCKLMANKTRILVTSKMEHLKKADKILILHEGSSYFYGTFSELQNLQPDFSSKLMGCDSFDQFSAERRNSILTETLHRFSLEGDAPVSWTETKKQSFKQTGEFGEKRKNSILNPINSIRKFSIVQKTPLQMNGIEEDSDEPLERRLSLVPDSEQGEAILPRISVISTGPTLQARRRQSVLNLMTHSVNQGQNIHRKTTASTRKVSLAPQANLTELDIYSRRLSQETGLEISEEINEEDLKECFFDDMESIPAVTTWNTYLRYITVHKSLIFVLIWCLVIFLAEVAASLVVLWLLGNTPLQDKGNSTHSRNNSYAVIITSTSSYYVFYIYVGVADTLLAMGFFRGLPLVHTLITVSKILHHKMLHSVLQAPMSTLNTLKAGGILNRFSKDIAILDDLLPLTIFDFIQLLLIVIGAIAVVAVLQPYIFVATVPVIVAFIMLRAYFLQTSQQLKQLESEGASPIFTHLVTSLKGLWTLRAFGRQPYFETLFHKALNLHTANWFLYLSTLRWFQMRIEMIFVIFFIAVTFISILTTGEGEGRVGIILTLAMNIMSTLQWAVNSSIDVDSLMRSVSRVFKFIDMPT
Method: Purified stabilized human CFTR (stab-CFTR: 2PT/ΔRI/R1048A_1172X) was concentrated to 0.5 mg/ml and mixed with 0.1 mg/ml nanobody (^˜[…]) and capillaries were loaded with a volume of 10 The capillaries were placed into trays of Prometheus NT.48 (Nanotemper) and subjected to the fluorescence analysis. The emission of fluorescent radiation with the wavelengths of 330 nm and 350 nm was measured with the temperature changes from 25 to 85° C., with the rate of 1° C. min-1. The first derivative of 350 nm fluorescence was used to determine the melting temperature of the proteins.

T1 sequence (P13569 388-646 V470M/S492P/A534P/I539T): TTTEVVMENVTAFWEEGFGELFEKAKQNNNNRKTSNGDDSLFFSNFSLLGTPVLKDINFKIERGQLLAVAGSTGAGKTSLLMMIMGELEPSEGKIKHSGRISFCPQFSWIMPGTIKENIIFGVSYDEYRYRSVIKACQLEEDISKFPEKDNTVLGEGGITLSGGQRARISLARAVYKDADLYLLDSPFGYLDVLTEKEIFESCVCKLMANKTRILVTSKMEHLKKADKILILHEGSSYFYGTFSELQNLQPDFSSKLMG

B1: G3a: non-stabilizing nanobody, SEQ ID NO:50, recognizes the structurally diverse region of NBD1 (protein)
VHH: QVQLQESGGGLVQAGGSLRLSCTASGRAFSWYVMGWFRQAPGKEREFVATVSGNGSRRDYADSVKGRFTISRDNAKNTVYLQMNSLKPEDTAVYYCAASSTYYYTDPEKYDYWGQGTQVTVSS
modifications: G3a Nanobody
In the case of B1, the “EC50 of binding to 2PT-NBD1” value [1] is reported as “weaker binding potency”, the Bmax [2] is reported as “about 50 % of T2a maximum signal” and the “binding of purified FL-CFTR” value [2] is reported as “bind with high affinity”. The “shift of CFTR thermal inactivation” value [3] was 3.1 °C.

B2: D12: NBD1-specific CFTR-stabilizing nanobody, SEQ ID NO:2, binds epitope 1 (protein)
VHH: QVQLQESGGGLVQAGSSLRLACAATGSIRSINNMGWYRQAPGKQRGMVAIITRVGNTDYADSVKGRFTISRDNAKNTVYLQMNSLKPEDTATYYCHAEITEQSRPFYLTDDYWGQGTQVTVSS
modifications: D12 Nanobody amino acid sequence
In the case of B2, the “shift of CFTR thermal inactivation” value [3] is reported as 7 °C.

B3: T2a: NBD1-specific CFTR-stabilizing nanobody, SEQ ID NO:3, binds epitope 1 (protein)
VHH: QVQLQESGGGLVQAGGSLRLSCAASGSIFRIDAMGWYRQAPGKQRELVAHSTSGGSTDYADSVKGRFTISRDNAKNTVYLQMNSLKPEDTAVYYCNADVRTRWYASNNYWGQGTQVTVSS
modifications: T2a Nanobody amino acid sequence
With B3 the “binding of purified FL-CFTR” value [2] was “bind with high affinity” and the “thermostabilization of stab-CFTR (Tm increase)” value [4] was 8 °C.

B4: T8: nanobody, SEQ ID NO:7, binds epitope 2 including F508, stabilizes WT CFTR but not F508del (protein)
VHH: QVQLQESGGGLVQPGGSLRLSCAASGSTSSINAMGWYRQAPGKQREPVAISSSGGDTRYAEPVKGRFTISRDNAQNKVYLQMNSLKPEDTAVYYCWLNWGRTSVNSWGQGTQVTVSS
modifications: T8 Nanobody amino acid sequence
With B4 the Bmax [2] was ~30 % of T2a maximum signal and the “binding of purified FL-CFTR” value [2] was “bind with high affinity”.

Source: patent publication US20220289837A1, “Cystic Fibrosis Transmembrane Conductance Regulator Stabilizing Agents” (VIB VZW, priority 2019, published 2022)
